This is an account of results in US20160017022A1 (CORNELL UNIVERSITY, published 2016).

The test deals with Alexa 594 labeled His-tagged protoxin (Clostridium perfringens epsilon protoxin) (Clostridium perfringens, UniProt Q02307 33-328). The test can be described thus: fluorescent toxin staining, MAL loss-of-function mouse.

B1: mouse MAL (endogenous, in wild-type mouse tissues; absent in MAL KO mice) (receptor)
chain: MAPAAASGGSTLPSGFSVFTTFPDLLFVCEFVFGGLVWILIASSLVPLPLAQGWVMFVSVFCFVATTSLMILYIIGTHGGETSWITLDAAYHCVAALFYLSASVLEALATISMFDGFTYKHYHENIAAVVFAYVVTLIYVVHAVFSLIRWKSS
notes: whole, on cells
For B1, the binding result is on record as “binds”.
